Data on one substance can be found in paper PMC8170886.

The test concerns the target bacteriophage P22 coat protein (bacteriophage P22) (UniProt P26747). Briefly: densitometry of SDS-PAGE of the purified particles; purified ASNase-P22 nanoreactors from different chromatograms, bands quantified with ImageJ; numbers per capsid calculated on 420 CP.

For “ASNase-SP chimeric protein (E. coli asparaginase II fused to the bacteriophage P22 scaffold protein) (from UniProt P00805 23-348) (enzyme)”, the ASNase-SP tetramers per capsid of 420 CP (tetramers per capsid) is 110, the monomers per capsid (monomers per capsid) is 448, the percent ASNase-SP in the nanoreactor's protein (densitometry) is 41.6% and the percent CP in the nanoreactor's protein (densitometry) was 58.4%.
